The DeepSol protein solubility set

assay: soluble on expression in E. coli; label from the status in PepcDB or PDB records

Sequence | soluble on expression in E. coli
MGVEIQSPQEQSSYTVEQLVALNPFNPEILPDLENYVNVTSQTYSLEVNLCLLRLYQFEPERMNTHIVARILVKALMAMPTPDFSLCLFLIPERVQMEEQFKSLIVLSHYLETGRFQQFWDEAAKNRHILEAVPGFEQAIQAYASHLLSLSYQKVPRSVLAEAVNMDGASLDKFIEQQVTNSGWIVEKEGGSIVLPQNEFNHPELKKNTGENVPLEHIARIFPILG | not soluble
MTTAAKTETEDPTARRILDAALEQFTVFGLRRSSMDDVAKRAGVSRVTVYRRFGTKDALVEQTLLRENSRFFQRLDQAVAALPTMEERVVEGFVVALRHTRAHPLFGGLLRLEPEVVLPYLTVHGGSSLAATVDYLTGHLRRAQQAEGRPGDDPRPVAELMVRVAVSFLLNPASCIEMDDEDQARAFARRYLAPLLNA | not soluble
VRGLPRAKKLEKLGVFSACKANGTCKCNGWKNPKPPTAPRIDLQQPAANLSELCRSCEHPLADHVSHLENVSEDEINRLLGMVVDVENLFMSVHKEEDTDTKQVYFYLFKLLRKCILQMTRPVVEGSLGSPPFEKPNIEQGVLNFVQYKFSHLAPRERQTMFELSKMFLLCLNYWELETPAQFRQRSQAEDVATYKVNYTRWLCYCHVPQSCDSLPRYETTHVFGRS | soluble
MKKYIALAWVCLALTDVMAQKQKVVEKVVDEDYYPVEGAVVTLKRTNQNATTDKDGVFILEEVPVYFDSLQVKKGKRSGYIDLPMRIQMRTQVMQRFSWSVKAGIGAGKFMQGPESKLKDGFSIYGGVGADIRMSKHWAFQPSLLLVSRKMKGYDFYGYYAENNGDGSSSASYEQVSGTYNPFYLEIPLLFALKYRVGNDMNLVFSFGPYIDLGLSGDEKREYIKHYYDTMEGNKTESVTNSRSLFGKRFTGGFAYGIGVEYGRFLIGGTGRVGCTSWNHSEGFIDVAFEIGYRF | not soluble
MNQRILSTLGFDKVKQQLLQFIVTAQGTNEVSELLPIADENKIQSWLNETQDGLKVQRLRGGIPIPKLENIQPHMKRIEIGADLNGIELAQVGRVLSTTSELTRFFDELSENEVDLEHHHHHH | not soluble
MMAKDFYSAIEDRRSIYAISKEQVVSDEKIQEVIYHAVKHTPSAFNSQSARVVVLLGEQHDKLWDITKETLRKIVPENNFAPTEEKMNAFKSGYGTVLYFEDSEVVESLQANFALYKDNFPTWSQQSSGMLQFAIWTALEIEGFGATLQHYNPLIDEEVRKEWDVPANWKLIAQMPFGKPVVQAGEKEFQPLENRVKIYKLEHHHHHH | soluble
MHFETVIGLEVHVELKTDSKMFSPSPAHFGAEPNSNTNVIDLAYPGVLPVVNKRAVDWAMRAAMALNMEIATESKFDRKNYFYPDNPKAYQISQFDQPIGENGYIDIEVDGETKRIGITRLHMEEDAGKSTHKGEYSLVDLNRQGTPLIEIVSEPDIRSPKEAYAYLEKLRSIIQYTGVSDVKMEEGSLRCDANISLRPYGQEKFGTKAELKNLNSFNYVRKGLEYEEKRQEEELLNGGEIGQETRRFDESTGKTILMRVKEGSDDYRYFPEPDIVPLYIDDAWKERVRQTIPELPDERKAKYVNELGLPAYDAHVLTLTKEMSDFFESTIEHGADVKLTSNWLMGGVNEYLNKNQVELLDTKLTPENLAGMIKLIEDGTMSSKIAKKVFPELAAKGGNAKQIMEDNGLVQISDEATLLKFVNEALDNNEQSVEDYKNGKGKAMGFLVGQIMKASKGQANPQLVNQLLKQELDKRMAGDPLEHHHHHH | not soluble
MSQFSKDQVQDMYYLSPMQEGMLFHAILNPGQSFYLEQITMKVKGSLNIKCLEESMNVIMDRYDVFRTVFIHEKVKRPVQVVLKKRQFHIEEIDLTHLTGSEQTAKINEYKEQDKIRGFDLTRDIPMRAAIFKKAEESFEWVWSYHHIILDGWCFGIVVQDLFKVYNALREQKPYSLPPVKPYKDYIKWLEKQDKQASLRYWREYLEGFEGQTTFAEQRKKQKDGYEPKELLFSPSEAETKAFTELAKSQHTTLSTALQAVWSVLISRYQQSGDLAFGTVVSGRPAEIKGVEHMVGLFINVVPRRVKLSEGITFNGLLKRLQEQSLQSEPHQYVPLYDIQSQADQPKLIDHIIVFENYPLQDAKNEESSENGFDMVDVHVFEKSNYDLNLMASPGDEMLIKLAYNENVFDEAFILRLKSQLLTAIQQLIQNPDQPVSTINLVDDREREFLLTGLNPPAQAHETKPLTYWFKEAVNANPDAPALTYSGQTLSYRELDEEANRIARRLQKHGAGKGSVVALYTKRSLELVIGILGVLKAGAAYLPVDPKLPEDRISYMLADSAAACLLTHQEMKEQAAELPYTGTTLFIDDQTRFEEQASDPATAIDPNDPAYIMYTSGTTGKPKGNITTHANIQGLVKHVDYMAFSDQDTFLSVSNYAFDAFTFDFYASMLNAARLIIADEHTLLDTERLTDLILQENVNVMFATTALFNLLTDAGEDWMKGLRCILFGGERASVPHVRKALRIMGPGKLINCYGPTEGTVFATAHVVHDLPDSISSLPIGKPISNASVYILNEQSQLQPFGAVGELCISGMGVSKGYVNRADLTKEKFIENPFKPGETLYRTGDLARWLPDGTIEYAGRIDDQVKIRGHRIELEEIEKQLQEYPGVKDAVVVADRHESGDASINAYLVNRTQLSAEDVKAHLKKQLPAYMVPQTFTFLDELPLTTNGKVNKRLLPKPDQDQLAEEWIGPRNEMEETIAQIWSEVLGRKQIGIHDDFFALGGHALKAMTAASRIKKELGIDLPVKLLFEAPTIAGISAYLKNGGSDGLQDVTIMNQDQEQIIFAFPPVLGYGLMYQNLSSRLPSYKLCAFDFIEEEDRLDRYADLIQKLQPEGPLTLFGYSAGCSLAFEAAKKLEEQGRIVQRIIMVDSYKKQGVSDLDGRTVESDVEALMNVNRDNEALNSEAVKHGLKQKTHAFYSYYVNLISTGQVKADIDLLTSGADFDIPEWLASWEEATTGVYRMKRGFGTHAEMLQGETLDRNAEILLEFLNTQTVTVSKGEFEAYVEQKLISEEDLNSAVDHHHHHH | soluble
MGSDKIHHHHHHMAHENVIEMRDITKVFGGFVANDKINLHLRKGEIHALLGENGAGKSTLMNMLAGLLEPTSGEIAVNGQVVNLDSPSKAASLGIGMVHQHFMLVEAFTVAENIILGSELTKNGVLDIAGASKEIKALSERYGLAVDPSAKVADISVGAQQRVEILKTLYRGADILIFDEPTAVLTPSEIDELMAIMKNLVKEGKSIILITHKLDEIRAVSDRVTVIRRGKSIETVEIAGATNADLAEMMVGRSVSFKTEKQASKPKEVVLSIKDLVVNENRGVPAVKNLSLDVRAGEIVGIAGIDGNGQSELIQAITGLRKVESGSIELKGDSIVGLHPRQITELSVGHVPEDRHRDGLILEMMISENIALQTYYKEPHSKNGILNYSNITSYAKKLMEEFDVRAASELVPAAALSGGNQQKAIIAREIDRDPDLLIVSQPTRGLDVGAIEYIHKRLIEERDNGKAVLVVSFELDEILNVSDRIAVIHDGKIQGIVSPETTNKQELGVLMAGGNLGKEKSDV | not soluble
MGHHHHHHSHMEWKVKVRSDGTRYVAKRPVRDRLLKARALKIREERSGMTTDDDAVSEMKMGRYWSKEERKQHLIRAREQRKRREFMMQSRLECLREQQNGDSKPELNIIALSHRKTMKKRNKKILDNWITIQEMLAHGARSADGKRVYNPLLSVTTV | not soluble
MIQPVAVIGAGPFGLSTAAHLRARGIPVRVFGDPMVSWRDHMPAGMLLKSTPAASTIDAPQRGHRLVDYCDAAGIARLVTDEDIIPVETFIGYGRWFQEQLVPGLEQVRVVSVDRKAGGGFELKLDSGELFTARAVVVATGLSGLAHLPAELAGAAVDGPTPTGPVSHSSQHHDLSRFAGKELVVVGAGQSALETAALAAEAGAHVRVVSRGRGRVSFGAPPWKQPRLRPESPFGRAWSLWALSYYPHPYRYLPAEARHYLVRRVLGPLGAWWLRDRFEGKVEVREVASVARAHASEGSPVLTLRTHGGRTQELPADHVIAATGYRVDIAAMDFLGHELRTELVVSRGTPKLGAGFRSSVPGLYFTGLPAAASYGPVMRFVCGTEFASPRLAKHLAGAHGLEHHHHHH | not soluble
MGSDKIHHHHHHMKIAQIAPLFEAVPPRLYGGTERVVASICDALVKAGHQVDLYASGDSQSKARLIPCRERALRLDPAPLKSDIAAHYTLLDEVRRHAGEYDILHFHTDMLHFPFFEPIASKTLTTLHGRLDMADLPNAFKRWRQFPLVSISNDQRRALPGANWAGTVYHGLDPALYRFNPNPQGGYLAFLGRISPEKRPDRAIAIARKAGIPLKIAAKVDAADLNYYNDVIKPLLNQADVEFIGEITDAQKNDFLGNALALLFPVDWPEPFGLVMIEAMACGTPVIAWRCGSVPEIIEPGRNGFIVTDEHQAAAACHAATTLDRAKVREAFDMRFTSDVMAEHYLKLYKRLAASANDDNLMESQVG | not soluble
MGSDKIHHHHHHMNLRQLYYFKKLAEKEHYTIAAAELSITQPSLSHSIAELERELGVYLFEKQGRNIRLTKYGRFYLTYVEKSLAELEKGEKLLHELTSPSHGNIDLGFIYTMGAHTVPELVQNFTKAENHKDITFSFYQGATKSIIPDLKNEKFDLAICSYVENEPDIEFLPLTKQELVIVVAENHPLAKYDSIDLKDTADYSYIFFSDTSGLRPLIDSLFAEINIQPKIGCYVEEDTAMVGLVSVDYGISIMPKISSLAHYNVKVLSINEPKHERFIYLASLKNHYISPASKAFKDFALRYGEKHFL | not soluble
MFCTLAGYRWLNSGSLLRRLSQRAVRRLPTAPLCHLHNGATESAASNGALRIVDEKVAYRRYATVFERTVQYPDGRHVTYDILGQPAVQSASVLVFPFDTQSKTCYVIREYCPGPNRVLYGFPAGMVETKHESLEAAARAELSEEAHLRCAQLIDLTAQAAVWERSFEVPNTASDAENCLRGFFADKYSRNVCKMYLALNPEPDGHPGSMDAEELIEQVGAVRVPQLEAWLWSGQMTMPHMLLAMCALTYLRQRGMLT | not soluble
MGSDKIHHHHHHMVEAQRVKEDEDAIRQALASLKNATGIPVTMYASVQSDSRLLINQWVGLRTPALQNLIIDNGVGVGGRVLKTRRPVGVSDYTRANVISHDLDPVIQDEGLHSIVAVPVIVQREVRGVLYVGVHSPVRLGDKVIEEVTMTARVLEQELAINSASRRSDNPRGGVAKQGRMMNGAEWEQIRSTHSKLRMLANRIEQEELRQELEELCDQMVAPVHVKQTTKLSARELDVLSCVALGHTNVEAAEEMGIGAETVKSYLRSVMRKLGAHTRYEAVNAARRIGALP | not soluble
MSTVNVQIGLHELLNGSNAQIQLSVPQLVEKVLMRNEGKLTSTGAVSASTGKYTGRSPKDKFIVKEASVADKIAWGAVNQPISEEHFNKLYTKVLEYLKEKEELFVFKGFAGADRNYRLPIQVINEYAWHNLFVHQLFIRPTEEELTTHESEFTIVSAPNFKADPAVDGTNSEAFIMVSFEKRIVLIGGTEYAGEMKKSIFSIMNFLLPEQDILSMHCSANVGEEGDVALFFGLSGTGKTTLSADPNRKLIGDDEHGWSDNGVFNIEGGCYAKCVNLSHEKEPQIFDAITFGSVLENVIINDQTRIADYNDTTLTENTRAAYPMHAIDNIILPSVAGHPNTIIFLTADASGVLPPISKLSKEQAMYHFLSGYTSKLAGTERGVTSPQATFSTCFGSPFLPLDASRYAEMLGEKIEKHDAKVFLVNTGWTGGEYGVGKRMNLGYTRAMIQAALNGELAKTETAKHDIFGLEVPLHVPGVPDEVLMPEQTWADKAAYKAKAIELANEFKANFKKFDSVSEDIINLGGPIA | not soluble
MSLIAVKPKKGHLLVAEPSITGDLSFNRSVVLLADHNCEGSVGFILNKPLGYTINDLIPEISARFKVYNGGPIEQDNLYFIHNIPQLIPNSIEIAEGIYWGGCFDSTRDLINQGKITQNNIRFFLGYSGWDAAQLQEELESNSWIISENNLHNKIIGKSSTDLWREKIKEQGGDYLIWSNAPENPILNEGHHHHHH | soluble
MSLTFEEKLSQMYNEIANEISGMIPVEWEKVYTIAYVDDEGGEVVFNYTKPGSEDLNYYSDIPKDCNVSKDIFKNSWFKVYRMFDELRETFKKEDLEPWTSCEFDFTRKGNLKVSFDYIDWIKLGFGPSGKENYYMYKKFGILPDMEYEMEEIRAVEKYVKEEGHHHHHH | soluble
